# Test results: the RNAGym collection of RNA variant scans (doi:10.7554/elife.90254)
# B1: LINE1-mini (parent)
# chain: GGCAGAGCUCAACACAGCGUGGCAAAGUGGCUGUGGCUAGACUGCC
# Variants of: B1
# Assay: self-cleavage, relative activity (ratio to wild type); higher = more cleavage; in vitro, sequencing; the parent is a self-cleaving ribozyme
row,Variant,self-cleavage
1,GGCAGAGCUCAACACAGCGUGGCAAAGUGGAUGUGGCUAGACUGCC [C31A],0.15
2,GGCAGAGCUCAACACAGCGUGGCAAAGUGUCUGUGGCUAGAGUGCC [G30U C42G],0.05
3,GGCAGAGCUCAACACAGCGUGGCAAAGUGUCUGUGGCUAGAAUGCC [G30U C42A],0.12
4,GGCAGAGCUCAACACAGCGUGGCAAAGUGUCUGUGGCUAGAUUGCC [G30U C42U],0.32
5,GGCAGAGCUCAACACAGCGUGGCAAAGUGUCGGUGGCUAGACUGCC [G30U U32G],0.08
6,GGCAGAGCUCAACACAGCGUGGCAAAGUGUCAGUGGCUAGACUGCC [G30U U32A],0.13
7,GGCAGAGCUCAACACAGCGUGGCAAAGUGUCCGUGGCUAGACUGCC [G30U U32C],0.23
8,GGCAGAGCUCAACACAGCGUGGCAAAGUGGAUGUGGCUAGGCUGCC [C31A A41G],0.08
9,GGCAGAGCUCAACACAGCGUGGCAAAGUGGAUGUGGCUAGCCUGCC [C31A A41C],0.03
10,GGCAGAGCUCAACACAGCGUGGCAAAGUGGAUGUGGCUAGUCUGCC [C31A A41U],0.09
11,GGCAGAGCUCAACACAGCGUGGCAAAGUGUCUGUGGCUAGACUCCC [G30U G44C],0.16
12,GGCAGAGCUCAACACAGCGUGGCAAAGUGUCUGUGGCUAGACUACC [G30U G44A],0.42
13,GGCAGAGCUCAACACAGCGUGGCAAAGUGUCUGUGGCUAGACUUCC [G30U G44U],0.21
14,GGCAGAGCUCAACACAGCGUGGCAAAGUGGAUGUGGAUAGACUGCC [C31A C37A],0.08
15,GGCAGAGCUCAACACAGCGUGGCAAAGUGGAUGUGGUUAGACUGCC [C31A C37U],0.09
16,GGCAGAGCUCAACACAGCGUGGCAAAGUGGAUGUGGGUAGACUGCC [C31A C37G],0.07
17,GGCAGAGCUCAACACAGCGUGGCAAAGUGUCUGUGGCUAGACUGCA [G30U C46A],1.42
18,GGCAGAGCUCAACACAGCGUGGCAAAGUGUCUGUGGCUAGACUGCU [G30U C46U],1.24
19,GGCAGAGCUCAACACAGCGUGGCAAAGUGUCUGUGGCUAGACUGCG [G30U C46G],1.29

row,Variant,self-cleavage
1,GGCAGAGCUCAACACAGCGUGGCAAAGUGUCUCUGGCUAGACUGCC [G30U G33C],0.11
2,GGCAGAGCUCAACACAGCGUGGCAAAGUGUCUAUGGCUAGACUGCC [G30U G33A],0.08
3,GGCAGAGCUCAACACAGCGUGGCAAAGUGUCUUUGGCUAGACUGCC [G30U G33U],0.08
4,GGCAGAGCUCAACACAGCGUGGCAAAGUGUCUGUGACUAGACUGCC [G30U G36A],0.19
5,GGCAGAGCUCAACACAGCGUGGCAAAGUGUCUGUGUCUAGACUGCC [G30U G36U],0.05
6,GGCAGAGCUCAACACAGCGUGGCAAAGUGUCUGUGCCUAGACUGCC [G30U G36C],0.11
7,GGCAGAGCUCAACACAGCGUGGCAAAGUGUCUGUGGCUAAACUGCC [G30U G40A],0.08
8,GGCAGAGCUCAACACAGCGUGGCAAAGUGUCUGUGGCUACACUGCC [G30U G40C],0.09
9,GGCAGAGCUCAACACAGCGUGGCAAAGUGUCUGUGGCUAUACUGCC [G30U G40U],0.13
10,GGCAGAGCUCAACACAGCGUGGCAAAGUGUCUGUGGCUAGACUGGC [G30U C45G],0.29
11,GGCAGAGCUCAACACAGCGUGGCAAAGUGUCUGUGGCUAGACUGUC [G30U C45U],1.11
12,GGCAGAGCUCAACACAGCGUGGCAAAGUGUCUGUGGCUAGACUGAC [G30U C45A],0.49
13,GGCAGAGCUCAACACAGCGUGGCAAAGUGUCUGUGGCGAGACUGCC [G30U U38G],0.03
14,GGCAGAGCUCAACACAGCGUGGCAAAGUGUCUGUGGCAAGACUGCC [G30U U38A],1
15,GGCAGAGCUCAACACAGCGUGGCAAAGUGUCUGUGGCCAGACUGCC [G30U U38C],1.12
16,GGCAGAGCUCAACACAGCGUGGCAAAGUGUCUGUCGCUAGACUGCC [G30U G35C],0.07
17,GGCAGAGCUCAACACAGCGUGGCAAAGUGUCUGUUGCUAGACUGCC [G30U G35U],0.08
18,GGCAGAGCUCAACACAGCGUGGCAAAGUGUCUGUAGCUAGACUGCC [G30U G35A],0.05
19,GGCAGAGCUCAACACAGCGUGGCAAAGUGGAUGUGGCUAGAUUGCC [C31A C42U],0.05

row,Variant,self-cleavage
1,GGCAGAGCUCAACACAGCGUGGCAAAGUGGAUGUGGCUAGAGUGCC [C31A C42G],0.05
2,GGCAGAGCUCAACACAGCGUGGCAAAGUGGAUGUGGCUAGAAUGCC [C31A C42A],0.04
3,GGCAGAGCUCAACACAGCGUGGCAAAGUGGAUGUGGCUGGACUGCC [C31A A39G],0.05
4,GGCAGAGCUCAACACAGCGUGGCAAAGUGGAUGUGGCUUGACUGCC [C31A A39U],0.11
5,GGCAGAGCUCAACACAGCGUGGCAAAGUGGAUGUGGCUCGACUGCC [C31A A39C],0.05
6,GGCAGAGCUCAACACAGCGUGGCAAAGUGUCUGUGGCUAGACCGCC [G30U U43C],0.1
7,GGCAGAGCUCAACACAGCGUGGCAAAGUGUCUGUGGCUAGACGGCC [G30U U43G],0.2
8,GGCAGAGCUCAACACAGCGUGGCAAAGUGUCUGUGGCUAGACAGCC [G30U U43A],0.11
9,GGCAGAGCUCAACACAGCGUGGCAAAGUGGAUGUGGCUAGACUGUC [C31A C45U],0.13
10,GGCAGAGCUCAACACAGCGUGGCAAAGUGGAUGUGGCUAGACUGAC [C31A C45A],0.05
11,GGCAGAGCUCAACACAGCGUGGCAAAGUGGAUGUGGCUAGACUGGC [C31A C45G],0.06
12,GGCAGAGCUCAACACAGCGUGGCAAAGUGGAUGUGGCUAGACUGCA [C31A C46A],0.13
13,GGCAGAGCUCAACACAGCGUGGCAAAGUGUCUGUGGUUAGACUGCC [G30U C37U],0.05
14,GGCAGAGCUCAACACAGCGUGGCAAAGUGUCUGUGGGUAGACUGCC [G30U C37G],0.05
15,GGCAGAGCUCAACACAGCGUGGCAAAGUGUCUGUGGAUAGACUGCC [G30U C37A],0.08
16,GGCAGAGCUCAACACAGCGUGGCAAAGUGUCUGAGGCUAGACUGCC [G30U U34A],0.05
17,GGCAGAGCUCAACACAGCGUGGCAAAGUGUCUGCGGCUAGACUGCC [G30U U34C],0.05
18,GGCAGAGCUCAACACAGCGUGGCAAAGUGUCUGGGGCUAGACUGCC [G30U U34G],0.09
